Stoichiometry N data for 1 substance are collected here from article PMC3282739.

The target in experiment [1] is Cthe_2751 (Clostridium thermocellum). The experiment is described as follows: SEC; Hi Load 10/300 Superdex G75 gel filtration column equilibrated with 20 mM Tris-HCl, 100 mM NaCl, pH 8.0.
Experiment [2] shares this target. The experiment is described as follows: AUC; sedimentation velocity in an analytical ultracentrifuge; curve generated with Sedfit.

Turning to Cthe_2751 (natural protein), the stoichiometry N in experiment [1] and in experiment [2] was 2 in each case.
